In article PMC4480132, “MAF1 represses CDKN1A through a Pol III-dependent mechanism”:

Biological target: T1, MAF1 (His-tagged, Fitzgerald 80R-1955) (UniProt Q9H063 1-256)
T1 sequence: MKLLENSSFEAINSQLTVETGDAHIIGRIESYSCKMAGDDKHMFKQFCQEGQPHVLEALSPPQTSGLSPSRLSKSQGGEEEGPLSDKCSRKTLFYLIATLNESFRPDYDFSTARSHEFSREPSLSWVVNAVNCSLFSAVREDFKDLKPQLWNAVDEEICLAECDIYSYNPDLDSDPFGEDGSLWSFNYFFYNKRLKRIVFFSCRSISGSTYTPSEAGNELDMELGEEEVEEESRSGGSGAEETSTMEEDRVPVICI
Test: colorimetric DNA-protein binding assay (ab117139); 40 ng biotin probe, 500 ng MAF1; IP-qPCR: 20 mM HEPES pH 7.6, 150 mM NaCl, 0.25 mM EDTA, 10% glycerol, 0.2% NP40, 1 mM DTT, 200 ng BSA, 50 ul, 20 ng DNA, 400 ng MAF1, 4 C/ice; colorimetric: Abcam ab117139 kit conditions
Conditions: protein: commercial; tags: His6; label: 5' biotin (probe)

B1: p21 A-box probe (CDKN1A MIR3) (dsDNA)
DNA 1: AATCAACAACTTTGTATACTTAAGTTCAGTGGACCTCAATTTCCTCATCTGTGAAATAAA
DNA 2: TTTATTTCACAGATGAGGAAATTGAGGTCCACTGAACTTAAGTATACAAAGTTGTTGATT
- binding result: binds
